Numbering of substitutions follows the chain as printed.
T1: human PAR-2 (human, UniProt P55085 26-397)
T1 sequence: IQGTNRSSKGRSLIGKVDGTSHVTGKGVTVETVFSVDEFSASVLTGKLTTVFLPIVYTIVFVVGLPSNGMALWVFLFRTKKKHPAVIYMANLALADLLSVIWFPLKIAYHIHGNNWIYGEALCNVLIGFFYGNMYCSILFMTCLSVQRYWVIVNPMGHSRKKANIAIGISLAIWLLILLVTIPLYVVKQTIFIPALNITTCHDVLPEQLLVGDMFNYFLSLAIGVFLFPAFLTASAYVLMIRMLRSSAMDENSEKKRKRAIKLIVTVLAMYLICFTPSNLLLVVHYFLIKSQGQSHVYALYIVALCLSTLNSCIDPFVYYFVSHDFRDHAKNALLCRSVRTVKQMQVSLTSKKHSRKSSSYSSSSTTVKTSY

B1: P24E186 (antibody, human IgG4 S228P, kappa, V domains shown)
VH: QVQLVQSGAEVKKPGSSVKVSCKASGFSLNSYGVIWVRQAPGQGLEWMGVIWGNGNTYYNQKFQGRVTITADESTSTAYMELSSLRSEDTAVYYCARWRGWKDYPFDYWGQGTLVTVSS
VL: EIVLTQSPATLSLSPGERATLSCKASQNIYKYLDWYQQKPGQAPRLLIYNTNSLHTGIPARFSGSGSGRDFTLTISSLEPEDFAVYYCLQHNSGWTFGGGTKVEIKR
B2: P24E216 (antibody, human IgG4 S228P, kappa, V domains shown)
VH: B1 VH with S31Y, W101Y
VL: B1 VL
B3: P24E219 (antibody, human IgG4 S228P, kappa, V domains shown)
VH: B1 VH with V34G, W101Y
VL: B1 VL
B4: P24E232 (antibody, human IgG4 S228P, kappa, V domains shown)
VH: B1 VH with N60G, W101Y
VL: B1 VL
B5: P24E233 (antibody, human IgG4 S228P, kappa, V domains shown)
VH: B1 VH with N60Y, W101Y
VL: B1 VL
B6: P24E278 (antibody, human IgG4 S228P, kappa, V domains shown)
VH: B1 VH with N30S, N60A, W101Y
VL: B1 VL with H55A
B7: P24E279 (antibody, human IgG4 S228P, kappa, V domains shown)
VH: B1 VH with N30S, N60A, W101Y
VL: B1 VL with K24R, H55A
B8: P24E280 (antibody, human IgG4 S228P, kappa, V domains shown)
VH: B1 VH with N30S, N60A, W101Y
VL: B1 VL with I29V, H55A
B9: P24E281 (antibody, human IgG4 S228P, kappa, V domains shown)
VH: B1 VH with N30S, N60A, W101Y
VL: B1 VL with T51A, H55A
B10: P24E282 (antibody, human IgG4 S228P, kappa, V domains shown)
VH: B1 VH with N30S, N60A, W101Y
VL: B1 VL with L54R, H55A
B11: P24E283 (antibody, human IgG4 S228P, kappa, V domains shown)
VH: B1 VH with G33A, N60A, W101Y
VL: B1 VL with H55A
B12: P24E284 (antibody, human IgG4 S228P, kappa, V domains shown)
VH: B1 VH with G33A, N60A, W101Y
VL: B1 VL with K24R, H55A
B13: P24E285 (antibody, human IgG4 S228P, kappa, V domains shown)
VH: B1 VH with G33A, N60A, W101Y
VL: B1 VL with I29V, H55A
B14: P24E286 (antibody, human IgG4 S228P, kappa, V domains shown)
VH: B1 VH with G33A, N60A, W101Y
VL: B1 VL with T51A, H55A
B15: P24E287 (antibody, human IgG4 S228P, kappa, V domains shown)
VH: B1 VH with G33A, N60A, W101Y
VL: B1 VL with L54R, H55A
B16: P24E288 (antibody, human IgG4 S228P, kappa, V domains shown)
VH: B1 VH with V34I, N60A, W101Y
VL: B1 VL with H55A
B17: P24E289 (antibody, human IgG4 S228P, kappa, V domains shown)
VH: B1 VH with V34I, N60A, W101Y
VL: B1 VL with K24R, H55A
B18: P24E290 (antibody, human IgG4 S228P, kappa, V domains shown)
VH: B1 VH with V34I, N60A, W101Y
VL: B1 VL with I29V, H55A
B19: P24E291 (antibody, human IgG4 S228P, kappa, V domains shown)
VH: B1 VH with V34I, N60A, W101Y
VL: B1 VL with T51A, H55A
B20: P24E292 (antibody, human IgG4 S228P, kappa, V domains shown)
VH: B1 VH with V34I, N60A, W101Y
VL: B1 VL with L54R, H55A
B21: P24E293 (antibody, human IgG4 S228P, kappa, V domains shown)
VH: B1 VH with G33A, V34I, I35S, N60A, W101Y
VL: B1 VL with H55A
B22: P24E294 (antibody, human IgG4 S228P, kappa, V domains shown)
VH: B1 VH with G33A, V34I, I35S, N60A, W101Y
VL: B1 VL with K24R, H55A
B23: P24E295 (antibody, human IgG4 S228P, kappa, V domains shown)
VH: B1 VH with G33A, V34I, I35S, N60A, W101Y
VL: B1 VL with I29V, H55A
B24: P24E296 (antibody, human IgG4 S228P, kappa, V domains shown)
VH: B1 VH with G33A, V34I, I35S, N60A, W101Y
VL: B1 VL with T51A, H55A
B25: P24E297 (antibody, human IgG4 S228P, kappa, V domains shown)
VH: B1 VH with G33A, V34I, I35S, N60A, W101Y
VL: B1 VL with L54R, H55A
B26: P24E298 (antibody, human IgG4 S228P, kappa, V domains shown)
VH: B1 VH with N30S, G33A, V34I, I35S, N60A, W101Y
VL: B1 VL with Y32W, H55A
B27: P24E300 (antibody, human IgG4 S228P, kappa, V domains shown)
VH: B1 VH with N30S, G33A, V34I, I35S, N60A
VL: B1 VL with Y32W, H55A
B28: P24E301 (antibody, human IgG4 S228P, kappa, V domains shown)
VH: B1 VH with N30S, G33A, V34I, I35S, N60A, R99K, W101Y
VL: B1 VL with Y32W, H55A
B29: P24E743 (antibody, human IgG4 S228P, kappa, V domains shown)
VH: B1 VH with N30S, G33A, V34I, I35S, N60A, W101Y
VL: B1 VL with I29V, Y32W, T51A, N52Y, H55A, L89Q, N92G
B30: P24E794 (antibody, human IgG4 S228P, kappa, V domains shown)
VH: B1 VH with N30S, G33A, V34I, I35S, N60A, W101Y
VL: B1 VL with K24R, I29V, Y32W, T51A, N52Y, L54R, H55A, L89Q
B31: P24E883 (antibody, human IgG4 S228P, kappa, V domains shown)
VH: B1 VH with N30S, G33A, V34I, I35S, N60A, W101Y
VL: B1 VL with I29V, Y32W, T51A, N52Y, H55A, L89Q
B32: P24E889 (antibody, human IgG4 S228P, kappa, V domains shown)
VH: B1 VH with N30S, G33A, V34I, I35S, N60A, W101Y
VL: B1 VL with K24R, Y32W, T51A, N52Y, H55A, L89Q
B33: P24E914 (antibody, human IgG4 S228P, kappa, V domains shown)
VH: B1 VH with N30S, G33A, V34I, I35S, N60A, R99K, W101Y
VL: B1 VL with K24R, Y32W, T51A, N52Y, H55A, L89Q

target: T1, human PAR-2; assay: cell-based or functional assay

Row | Binder | PAR-2 β-arrestin cell based assay IC50, 1 µM SLIGKV [nM] | PAR-2 β-arrestin cell based assay IC50, 2 µM SLIGKV [nM]
1 | B1 | 3.25 | 
2 | B2 | 1.95 | 
3 | B3 | 1.33 | 
4 | B4 | 1.99 | 
5 | B5 | 1.77 | 
6 | B6 |  | 2.5
7 | B7 |  | 2.8
8 | B8 |  | 1.9
9 | B9 |  | 2.6
10 | B10 |  | 2
11 | B11 |  | 3.6
12 | B12 |  | 2.5
13 | B13 |  | 2.3
14 | B14 |  | 2.1
15 | B15 |  | 2.2
16 | B16 |  | 1.4
17 | B17 |  | 2.6

Row | Binder | PAR-2 β-arrestin cell based assay IC50, 1 µM SLIGKV [nM] | PAR-2 β-arrestin cell based assay IC50, 2 µM SLIGKV [nM]
18 | B18 |  | 2.2
19 | B19 |  | 3.1
20 | B20 |  | 1.2
21 | B21 |  | 2
22 | B22 |  | 2.9
23 | B23 |  | 1.6
24 | B24 |  | 2.4
25 | B25 |  | 3
26 | B26 |  | 1.47
27 | B27 |  | 1.3
28 | B28 |  | 1.48
29 | B29 |  | 1.51
30 | B30 |  | 0.89
31 | B31 |  | 1.21
32 | B32 |  | 0.97
33 | B33 |  | 0.94

Source: patent publication US20220056125A1 (CEPHALON, published 2022)
